From publication PMC8225110, “The Divergent Key Residues of Two Agrobacterium fabrum (tumefaciens) CheY Paralogs Play a Key Role in Distinguishing Their Functions” (Microorganisms, 2021) come the findings set out here.

This assay has as its target T1, GST-FliM fusion protein (Agrobacterium fabrum C58, UniProt Q44457 1-321).
T1 construct: Flagellar motor switch protein FliM (atu0561) of Agrobacterium fabrum C58; Cloned in pGEX-4T-1; not shown: GST, N-terminal, kept
T1 sequence (looked up): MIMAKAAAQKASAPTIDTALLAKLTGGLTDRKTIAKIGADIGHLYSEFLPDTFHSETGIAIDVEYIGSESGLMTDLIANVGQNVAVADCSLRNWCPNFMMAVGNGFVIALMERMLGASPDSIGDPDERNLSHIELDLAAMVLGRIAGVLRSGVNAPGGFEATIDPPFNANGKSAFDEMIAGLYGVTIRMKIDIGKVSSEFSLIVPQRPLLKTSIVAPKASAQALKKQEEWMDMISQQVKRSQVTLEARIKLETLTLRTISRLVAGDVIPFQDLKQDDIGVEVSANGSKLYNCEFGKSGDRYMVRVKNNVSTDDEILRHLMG
Description: pull-down; GST-FliM on glutathione-Sepharose 4B beads, crude extract of CheY-6×his in PBS with MgCl2 and acetyl phosphate (phosphorylating conditions), 4 °C, 1 h; Western blot with anti-6×his antibody. The note with it: one partner purified.

B1: CheY2-6×his fusion protein, phosphorylated with acetyl phosphate (natural protein, Agrobacterium fabrum C58, UniProt Q7D1A5 1-129, looked up)
chain: MSLAEKIKVLIVDDQVTSRLLLSDALTQLGFKQITSAGDGEQGLKIMEQQPHHLVISDFNMPKMDGLGFLHAVRANPTTKKAAFIILTAQGDRALVQKAAQLGANNVLAKPFTIDKMRAAIEAVFGSLK
modifications: phosphorylated by acetyl phosphate (residue not given)
notes: Chemotaxis response regulator CheY2 (atu0520) of Agrobacterium fabrum C58; Same construct as m11; the extent of phosphorylation was not measured; also called CheY2-P; source: E. coli BL21 (DE3), crude extract, with acetyl phosphate (phosphorylating conditions); not shown: His6, C-terminal, kept
As to B1, the “fold band intensity pulled down, against CheY1-6×his” value is about 5 fold.
